Source: paper PMC6449345

Columns and labels:
[1] = target: S. cerevisiae RNA polymerase II (Pol II), stalled elongation complex on DNA with nascent RNA (S. cerevisiae) (UniProt P16370)
[2] = target: S. cerevisiae RNA polymerase II (Pol II), stalled elongation complex on DNA with nascent RNA (S. cerevisiae) (UniProt P16370); remark: listed apart in the source

UniProt P16370, sequence (P16370 whole entry, looked up, one chain of several): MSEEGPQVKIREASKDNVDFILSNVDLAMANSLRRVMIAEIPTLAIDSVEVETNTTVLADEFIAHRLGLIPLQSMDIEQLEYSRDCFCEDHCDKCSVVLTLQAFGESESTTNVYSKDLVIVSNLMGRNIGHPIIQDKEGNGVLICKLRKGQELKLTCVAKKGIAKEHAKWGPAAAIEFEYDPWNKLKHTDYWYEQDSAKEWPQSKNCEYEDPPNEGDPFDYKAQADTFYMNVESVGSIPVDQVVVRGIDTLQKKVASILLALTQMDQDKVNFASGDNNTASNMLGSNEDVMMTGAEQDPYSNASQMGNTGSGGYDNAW

Km of formation of the intermediate (Sen1·sEC)'; Michaelis-Menten fit of t1, the lifetime before the intermediate forms [1]: 0.096 nM
Km of removal of stalled Pol II by Sen1 HD (10-100 pM); Michaelis-Menten fit of the mean total lifetime (t total) of the transcription bubble; magnetic-trap DNA supercoiling assay, 1 mM ATP, 28 °C [1]: 70 pM
Km of removal of stalled Pol II by Sen1 HD; Michaelis-Menten fit of t total, corrected for the stalling rate ks [1]: 0.083 nM
Km of removal of stalled Pol II by Sen1 HD; single-molecule Michaelis-Menten global fit of t total distributions (from k1, k-1 and kCAT) [1]: 0.041 nM
k1, rate of binding of Sen1 HD to the stalled elongation complex; single-molecule Michaelis-Menten global fit of t total distributions, kCAT constrained [1]: 2.18e+09 M⁻¹ s⁻¹
k−1, rate of unbinding of Sen1 HD from the stalled elongation complex; single-molecule Michaelis-Menten global fit of t total distributions, kCAT constrained [1]: 0.0725 s⁻¹
k−1, rate of unbinding of Sen1 HD from the stalled elongation complex; the same fit [2]: 0.0719 s⁻¹
B1: Sen1 helicase domain (Sen1 HD, 1095–1904) (domain or fragment)
chain: AELAKQELEHMRKRLNVDMNPLYEIILQWDYTRNSEYPDDEPIGNYSDVKDFFNSPADYQKVMKPLLLLESWQGLCSSRDREDYKPFSIIVGNRTAVSDFYDVYASVAKQVIQDCGISESDLIVMAYLPDFRPDKRLSSDDFKKAQHTCLAKVRTLKNTKGGNVDVTLRIHRNHSFSKFLTLRSEIYCVKVMQMTTIEREYSTLEGLEYYDLVGQILQAKPSPPVNVDAAEIETVKKSYKLNTSQAEAIVNSVSKEGFSLIQGPPGTGKTKTILGIIGYFLSTKNASSSNVIKVPLEKNSSNTEQLLKKQKILICAPSNAAVDEICLRLKSGVYDKQGHQFKPQLVRVGRSDVVNVAIKDLTLEELVDKRIGERNYEIRTDPELERKFNNAVTKRRELRGKLDSESGNPESPMSTEDISKLQLKIRELSKIINELGRDRDEMREKNSVNYRNRDLDRRNAQAHILAVSDIICSTLSGSAHDVLATMGIKFDTVIIDEACQCTELSSIIPLRYGGKRCIMVGDPNQLPPTVLSGAASNFKYNQSLFVRMEKNSSPYLLDVQYRMHPSISKFPSSEFYQGRLKDGPGMDILNKRPWHQLEPLAPYKFFDIISGRQEQNAKTMSYTNMEEIRVAIELVDYLFRKFDNKIDFTGKIGIISPYREQMQKMRKEFARYFGGMINKSIDFNTIDGFQGQEKEIILISCVRADDTKSSVGFLKDFRRMNVALTRAKTSIWVLGHQRSLAKSKLWRDLIEDAKDRSCLAYACSGFLDPRNNRAQSILRKFNVPVPSEQEDDYKLPMEYITQGPDEVKSN
